Changes are numbered by the printed parent chain. Names may count otherwise.

Assay [1] addresses T1, His-tagged soluble human ADAM9 (shADAM9-His) (human, UniProt Q13443 206-697).
T1 construct: Contains an extracellular portion of human ADAM9; also called huADAM9-His; His peptide-tagged soluble huADAM9
T1 sequence: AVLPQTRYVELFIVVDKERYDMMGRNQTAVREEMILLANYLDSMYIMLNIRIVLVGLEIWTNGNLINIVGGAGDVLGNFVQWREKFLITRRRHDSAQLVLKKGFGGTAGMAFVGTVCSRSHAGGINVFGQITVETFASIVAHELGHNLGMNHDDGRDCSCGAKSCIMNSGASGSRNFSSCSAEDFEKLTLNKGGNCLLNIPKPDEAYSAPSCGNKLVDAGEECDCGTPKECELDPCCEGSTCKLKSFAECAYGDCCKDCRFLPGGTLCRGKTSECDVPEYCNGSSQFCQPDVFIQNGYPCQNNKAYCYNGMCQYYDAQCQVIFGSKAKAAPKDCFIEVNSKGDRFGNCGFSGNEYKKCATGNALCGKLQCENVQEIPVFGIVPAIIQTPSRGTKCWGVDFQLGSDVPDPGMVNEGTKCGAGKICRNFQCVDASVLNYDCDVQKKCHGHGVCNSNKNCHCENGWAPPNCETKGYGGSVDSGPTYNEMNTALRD
The assay can be described thus: SPR (BIACORE), antibody captured, huADAM9-His in flow. On the technique in general: SPR reads the build-up and loss of mass on a sensor chip optically.

The target of assay [2] is T2, cynomolgus monkey ADAM9 (cynoADAM9) on cells (cynomolgus monkey, UniProt Q13443 206-819 (human entry)).
T2 construct: also called Cho-K/cynoADAM9 clone 2; Cho-K/cynoADAM9 clone #16
T2 chain: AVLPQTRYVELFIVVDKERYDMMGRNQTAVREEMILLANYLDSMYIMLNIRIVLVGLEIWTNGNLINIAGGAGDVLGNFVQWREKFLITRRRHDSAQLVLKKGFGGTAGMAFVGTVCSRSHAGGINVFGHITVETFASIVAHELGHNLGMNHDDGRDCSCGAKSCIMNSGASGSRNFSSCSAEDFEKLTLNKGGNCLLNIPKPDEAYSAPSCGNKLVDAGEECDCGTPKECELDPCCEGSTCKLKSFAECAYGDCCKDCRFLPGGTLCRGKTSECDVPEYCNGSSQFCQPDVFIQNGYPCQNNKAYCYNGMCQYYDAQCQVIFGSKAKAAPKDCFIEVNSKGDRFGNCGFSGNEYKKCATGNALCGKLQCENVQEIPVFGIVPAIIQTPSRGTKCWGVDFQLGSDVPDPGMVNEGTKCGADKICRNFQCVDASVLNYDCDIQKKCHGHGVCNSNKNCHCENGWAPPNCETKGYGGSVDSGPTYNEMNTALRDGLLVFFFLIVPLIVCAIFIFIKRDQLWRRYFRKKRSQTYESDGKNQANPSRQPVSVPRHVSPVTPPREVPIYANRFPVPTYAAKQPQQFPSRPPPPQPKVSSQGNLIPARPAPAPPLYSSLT
The assay can be described thus: FACS, EC50 on 300-19 cynoADAM9 cells over EC50 on 300-19 huADAM9 cells.

Assay [3] has as its target T3, huFcRn (human, UniProt P55899 24-297; P61769 21-119, limits assumed).
T3 construct: source and construct are not described; also called human FcRn
Briefly: SPR at pH 6.0: 250 nM and 1000 nM huFcRn passed over captured antibody.

Assay [4] concerns the target T4, human ADAM9 (huADAM9) on cells (human, UniProt Q13443 206-819).
T4 construct: The pro-domain is said to be cleaved (Arg-205/Ala-206) in the mature protein; also called Cho-K/huADAM9; Cho-K/hu ADAM9.2
T4 sequence: T2 chain with A69V, H130Q, D421G, I441V, R521S, V546G, P569A
The assay can be described thus: FACS, 300-19 cells expressing human ADAM9. A general note: A flow cytometer gives signals particle by particle.

Assay [5] concerns the target T2, cynomolgus monkey ADAM9 (cynoADAM9) on …. The assay can be described thus: FACS, 300-19 cells expressing cynomolgus ADAM9.
In assay [6] the target is T1, His-tagged soluble human ADAM9 …. The assay can be described thus: ELISA: His-tagged soluble huADAM9 (0.5 µg/mL) captured by plate-coated anti-His antibody; serial dilutions of antibody about 0.2-500 ng/mL; abs @450nm.
Another assay concerns the target T5, cyno FcRn (cynomolgus monkey, UniProt Q8SPV9 24-297; Q8SPW0 21-119, limits assumed).
T5 construct: source and construct are not described
The assay can be described thus: FcRn binding, method not described.

Assay [7] concerns the target T3, huFcRn. Briefly: SPR at pH 6.0: 25 nM and 100 nM antibody passed over immobilized FcRn (species of the FcRn not named in the legend); bivalent analyte.
Assay [8] deals with T2, cynomolgus monkey ADAM9 (cynoADAM9) on …. The assay can be described thus: FACS, EC50 on 300-19 cynoADAM9 cells over EC50 on 300-19 huADAM9 cells; Unitless ratio of cyno EC50 to human EC50 by FACS on 300-19 cells.
Assay [9] has the same target. Briefly: FACS, 300-19 cells expressing cynomolgus ADAM9; FACS, 300-19 cells expressing cynoADAM9, dilution series, 4° C.
Assay [10] deals with T1, His-tagged soluble human ADAM9 …. Briefly: SPR (BIACORE), antibody captured on anti-human Fc, shADAM9-His 6.25-100 nM, 1:1 Langmuir.

T3 sequence (P55899 24-297 limits assumed, chain 1 of 2): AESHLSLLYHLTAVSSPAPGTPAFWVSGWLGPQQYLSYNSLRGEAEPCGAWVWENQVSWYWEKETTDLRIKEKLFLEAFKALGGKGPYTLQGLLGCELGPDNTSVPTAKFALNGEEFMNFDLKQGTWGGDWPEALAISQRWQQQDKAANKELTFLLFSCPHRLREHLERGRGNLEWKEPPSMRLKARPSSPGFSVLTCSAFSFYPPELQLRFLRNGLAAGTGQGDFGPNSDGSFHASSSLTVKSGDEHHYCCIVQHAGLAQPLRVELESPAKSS
T3 sequence (P61769 21-119 limits assumed, chain 2 of 2): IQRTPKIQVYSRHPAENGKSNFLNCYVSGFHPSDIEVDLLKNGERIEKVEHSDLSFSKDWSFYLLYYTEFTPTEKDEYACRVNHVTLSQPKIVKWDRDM
T5 sequence (Q8SPV9 24-297 limits assumed, chain 1 of 2): as the sequence (P55899 24-297 limits assumed, chain 1 of 2) above, with N39D, E44Q, G99S, S189G, S190N, L217M, S269T counted along it
T5 sequence (Q8SPW0 21-119 limits assumed, chain 2 of 2): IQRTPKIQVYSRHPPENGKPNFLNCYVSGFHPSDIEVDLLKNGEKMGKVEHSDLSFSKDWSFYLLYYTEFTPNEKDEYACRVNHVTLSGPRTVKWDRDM

B1: hMAB-A (2I.2) (antibody, human IgG1, kappa)
heavy: not shown
light: DIVMTQSPDSLAVSLGERATISCKASQSVDYSGDSYMNWYQQKPGQPPKLLIYAASDLESGIPARFSGSGSGTDFTLTISSLEPEDFATYYCQQSHEDPFTFGQGTKLEIKRTVAAPSVFIFPPSDEQLKSGTASVVCLLNNFYPREAKVQWKVDNALQSGNSQESVTEQDSKDSTYSLSSTLTLSKADYEKHKVYACEVTHQGLSSPVTKSFNRGEC
notes: Kappa light chain, wild-type IgG1 heavy chain constant regions; also called MAB-A VH(2I); MAB-A VH(2I.2)
With B1, in [1], the Kd came to 0.4 nM; the koff – broadly, the first-order rate constant of dissociation – amounted to 0.00023 s⁻¹; the kon (usually the second-order rate constant of association) came out at 660000 M⁻¹ s⁻¹. Further, the “cyno/human (ratio of EC50)” value in assay [2] was 3. This molecule came in with a Kd with huFcRn [3] of 3400 nM. For the same molecule, in assay [4], the response was half-maximal at 1.49 nM (EC50). Moreover, the 50% effective concentration (EC50) (in general, the concentration needed to bring the measured effect to its halfway point) in assay [5] turned out to be 4.1 nM. The EC50 (read off the curve) – broadly, the midpoint of the concentration-response curve – in assay [6] was about 9 ng/mL.

B2: hMAB-A(2I.2)-YTE (antibody, human IgG1, kappa)
heavy: EVQLVESGGGLVKPGGSLRLSCAASGFTFSSYWMHWVRQAPGKGLEWVGEIIPIFGHTNYNEKFKSRFTISLDNSKNTLYLQMGSLRAEDTAVYYCARGGYYYYPRQGFLDYWGQGTTVTVSSASTKGPSVFPLAPSSKSTSGGTAALGCLVKDYFPEPVTVSWNSGALTSGVHTFPAVLQSSGLYSLSSVVTVPSSSLGTQTYICNVNHKPSNTKVDKRVEPKSCDKTHTCPPCPAPELLGGPSVFLFPPKPKDTLYITREPEVTCVVVDVSHEDPEVKFNWYVDGVEVHNAKTKPREEQYNSTYRVVSVLTVLHQDWLNGKEYKCKVSNKALPAPIEKTISKAKGQPREPQVYTLPPSREEMTKNQVSLTCLVKGFYPSDIAVEWESNGQPENNYKTTPPVLDSDGSFFLYSKLTVDKSRWQQGNVFSCSVMHEALHNHYTQKSLSLSPGK
light: B1 light
notes: Last residue X is lysine or absent; also called hMAB-A(2I.2) with the YTE mutation (M252Y, S254T, T256E)
B2: the binding result with cyno FcRn is “binds”. Also, the Kd in the assay with huFcRn [3] is 730 nM; with huFcRn [7], 7.2 nM.

B3: hMAB-A(2I.2)-S442C (antibody)
heavy: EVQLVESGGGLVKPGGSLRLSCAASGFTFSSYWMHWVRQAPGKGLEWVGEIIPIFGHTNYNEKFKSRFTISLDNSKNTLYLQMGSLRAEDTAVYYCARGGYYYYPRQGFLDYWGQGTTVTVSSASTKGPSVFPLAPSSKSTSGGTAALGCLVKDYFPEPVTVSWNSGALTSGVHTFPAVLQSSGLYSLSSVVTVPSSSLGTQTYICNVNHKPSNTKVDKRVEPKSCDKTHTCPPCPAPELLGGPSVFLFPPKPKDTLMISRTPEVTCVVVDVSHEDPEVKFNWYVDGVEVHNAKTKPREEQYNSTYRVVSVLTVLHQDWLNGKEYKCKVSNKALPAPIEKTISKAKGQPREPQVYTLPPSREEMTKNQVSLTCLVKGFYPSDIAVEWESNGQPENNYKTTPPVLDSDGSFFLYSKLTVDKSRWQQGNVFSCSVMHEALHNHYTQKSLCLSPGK
light: B1 light
notes: IgG1 kappa with engineered Cys S442C (EU index); also called hMAB-A (2I.2)(C)
Regarding B3, in assay [2], the “cyno/human (ratio of EC50)” value came to 3. Also, the half-maximal effective concentration (EC50) in [4] was determined as 1.33 nM; in assay [5], 3.8 nM. Besides, in assay [6], the “EC50 (read off the curve)” value was about 9 ng/mL.

B4: hMAB-A (2.2) (antibody, human IgG1, kappa, V domains shown)
VH: EVQLVESGGGLVKPGGSLRLSCAASGFTFSSYWMHWVRQAPGKGLEWVGEIIPIFGHTNYNEKFKSRFTISLDNSKNTLYLQMGSLRAEDTAVYYCARGGYYYYGSRDYFDYWGQGTTVTVSS
VL: DIVMTQSPDSLAVSLGERATISCKASQSVDYSGDSYMNWYQQKPGQPPKLLIYAASDLESGIPARFSGSGSGTDFTLTISSLEPEDFATYYCQQSHEDPFTFGQGTKLEIKR
notes: IgG1 kappa; also called huMAB-A(2.2); parental hMAB-A (2.2)
In [1], B4 showed a Kd of 0.6 nM, a koff of 0.00055 s⁻¹ and a kon of 900000 M⁻¹ s⁻¹. The “cyno/human (ratio of EC50)” value in assay [8] is 47. This molecule showed a half-maximal effective concentration (EC50) in assay [4] of 0.69 nM. Further, the concentration for a half-maximal effect (EC50) in [9] turned out to be 32.7 nM. The molecule further gave a Kd in assay [10] of 1.4 nM.

For the origin of these results see US20210388102A1 (IMMUNOGEN, published 2021).
